Values quoted from earlier work, collected in article PMC11794116.

Molecular target: CD16a (F176) (Homo sapiens) (UniProt P08637)
Sequence (P08637 17-208): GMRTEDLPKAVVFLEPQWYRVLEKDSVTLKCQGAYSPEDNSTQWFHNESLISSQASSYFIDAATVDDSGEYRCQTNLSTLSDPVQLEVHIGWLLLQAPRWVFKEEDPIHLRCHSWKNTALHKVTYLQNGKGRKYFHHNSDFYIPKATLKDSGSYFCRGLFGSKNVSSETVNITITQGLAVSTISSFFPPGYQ

## trastuzumab Fc
  Kd: 1070 nM
